The source of these data is paper PMC13036491, “RNA binding protein Musashi1 interacts with the viral genomic RNA and restricts SARS-CoV-2 infection by repressing translation”.

This series concerns the target GST-Msi1 (Homo sapiens, UniProt O43347 1-362). Kind of series: EMSA. The conditions noted are these: protein: recombinant; tags: N-terminal GST (pGEX 5X-2); label: fluorescein-12-UTP. A general note: A gel shift assay detects complexes by their altered migration in electrophoresis.

Chain of GST-Msi1 (O43347 whole entry): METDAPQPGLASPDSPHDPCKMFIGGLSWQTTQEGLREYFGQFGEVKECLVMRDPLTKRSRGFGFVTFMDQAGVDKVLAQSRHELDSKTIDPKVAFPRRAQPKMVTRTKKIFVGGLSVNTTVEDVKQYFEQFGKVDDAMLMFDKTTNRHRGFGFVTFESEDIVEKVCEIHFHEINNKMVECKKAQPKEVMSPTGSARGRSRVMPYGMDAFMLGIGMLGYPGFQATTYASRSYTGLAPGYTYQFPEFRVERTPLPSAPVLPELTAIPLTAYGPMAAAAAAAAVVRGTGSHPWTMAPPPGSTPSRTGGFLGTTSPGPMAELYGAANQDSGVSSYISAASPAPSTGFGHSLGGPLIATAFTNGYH

With GGGUAGCACAAGCCGAUGCCGUUAA (ssRNA) [M1 mutant RNA], the binding result was “no binding”.

As to GGGAUUUUAGCCGUGCUAUCCCCA (ssRNA) [M2 mutant RNA], the binding result is reported as “no binding”.
